Assay results from patent US20220002412A1 (SINOCELLTECH, published 2022).

Key:
[1] = target: T1, recombinant monkey PD-1 protein (monkey, UniProt B0LAJ3 25-170, Biotinylated in the Octet assay; the site of biotinylation is not stated.); test: Octet (BLI), biotinylated monkey PD-1
T1 construct: Bought protein; also called biotinylated monkey PD-1 protein

[2] = target: T1, recombinant monkey PD-1 protein; test: indirect ELISA, coated antigen titrated, antibody at 2 µg/mL
[3] = target: T2, recombinant human PD-1 protein (Sino Biological, Inc, Cat. 10377-H08H) (human, UniProt Q15116 25-167); test: competition ELISA: coated recombinant human PD-1, blocked ligand PD-L1-Fc-biotin, antibody at three concentrations
[4] = target: T3, recombinant mouse PD-1 protein (mouse, UniProt Q02242 25-167, limits assumed, biotinylated in the Octet assay); test: Octet biolayer interferometry on biotinylated mouse PD-1 protein
T3 construct: Bought protein; also called murine PD-1; biotinylated mouse PD-1 protein
T3 sequence (looked up): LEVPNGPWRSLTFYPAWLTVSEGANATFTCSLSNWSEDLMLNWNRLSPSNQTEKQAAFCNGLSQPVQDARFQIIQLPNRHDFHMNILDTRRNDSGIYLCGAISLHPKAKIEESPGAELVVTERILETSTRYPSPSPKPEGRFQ

[5] = target: T4, recombinant CD16a-AVI-His (V158)+BirA protein (UniProt P08637 17-208, +BirA (AVI tag, detected with streptavidin/HRP)); test: ELISA: antibody titrated on coated recombinant human PD-1, then recombinant CD16a-AVI-His (V158)+BirA with streptavidin/HRP
T4 construct: Bought from Sino Biological; It is the V158 allotype as printed; also called recombinant CD16a (V158) protein; recombinant CD16a protein

[6] = target: T1, recombinant monkey PD-1 protein; test: indirect ELISA, coated antigen titrated (antigenic EC50), antibody at 2 µg/mL
[7] = target: T5, biotinylated FCGRT-His+B2M protein (human, UniProt P55899 24-297; P61769 21-119, biotinylated); test: ELISA at pH 6.0, biotinylated FCGRT-His+B2M captured on avidin, antibody at 270 µg/mL
T5 construct: Bought from Sino Biological; also called recombinant human FcRn protein; human FcRn protein

[8] = target: T2, recombinant human PD-1 protein (Sino …); test: monoclonal phage ELISA on recombinant human PD-1 protein

T1 sequence (B0LAJ3 entry or part of it limits assumed): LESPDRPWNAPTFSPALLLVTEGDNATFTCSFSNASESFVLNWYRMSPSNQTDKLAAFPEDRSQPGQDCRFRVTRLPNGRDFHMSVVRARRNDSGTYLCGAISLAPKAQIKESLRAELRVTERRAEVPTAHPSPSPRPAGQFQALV
T2 sequence (Q15116 25-167 limits assumed): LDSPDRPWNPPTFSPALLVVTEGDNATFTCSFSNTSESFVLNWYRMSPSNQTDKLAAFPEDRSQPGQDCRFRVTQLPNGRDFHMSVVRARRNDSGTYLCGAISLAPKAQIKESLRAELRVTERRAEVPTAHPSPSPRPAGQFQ
T4 sequence (P08637 17-208 F176V limits assumed): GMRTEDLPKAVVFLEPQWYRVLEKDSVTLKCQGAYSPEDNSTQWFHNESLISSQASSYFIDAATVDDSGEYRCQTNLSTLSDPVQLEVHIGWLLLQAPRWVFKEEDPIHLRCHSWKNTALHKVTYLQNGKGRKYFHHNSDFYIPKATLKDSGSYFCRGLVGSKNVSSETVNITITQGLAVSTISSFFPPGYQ
T5 sequence (P55899 24-297 limits assumed, chain 1 of 2): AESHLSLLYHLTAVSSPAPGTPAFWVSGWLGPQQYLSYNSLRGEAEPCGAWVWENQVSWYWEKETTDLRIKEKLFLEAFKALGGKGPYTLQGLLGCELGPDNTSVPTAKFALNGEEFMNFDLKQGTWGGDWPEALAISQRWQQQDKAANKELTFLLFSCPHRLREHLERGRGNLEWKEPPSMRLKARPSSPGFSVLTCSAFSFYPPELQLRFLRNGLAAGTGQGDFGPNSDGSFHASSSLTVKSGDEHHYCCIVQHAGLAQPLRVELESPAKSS
T5 sequence (P61769 21-119 limits assumed, chain 2 of 2): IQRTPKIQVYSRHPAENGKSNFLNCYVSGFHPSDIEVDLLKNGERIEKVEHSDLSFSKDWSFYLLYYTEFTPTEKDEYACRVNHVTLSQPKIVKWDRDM

B1: Nivolumab (antibody, V domains shown)
VH: QVQLVESGGGVVQPGRSLRLDCKASGITFSNSGMHWVRQAPGKGLEWVAVIWYDGSKRYYADSVKGRFTISRDNSKNTLFLQMNSLRAEDTAVYYCATNDDYWGQGTLVTVSS
VL: EIVLTQSPATLSLSPGERATLSCRASQSVSSYLAWYQQKPGQAPRLLIYDASNRATGIPARFSGSGSGTDFTLTISSLEPEDFAVYYCQQSSNWPRTFGQGTKVEIK
[1]
  Kd: 0.131 nM
[2]
  EC50: 0.0802 µg/mL

B2: murine antibody PD1-M944 (antibody, mouse IgG1, V domains shown)
VH: EVQLVESGGGLVKPGGSLKLSCAASGFTFSSYGMSWVRQTPEKRLEWVATISGGGRDTYYSDSVKGRFTVSRDNAKNNLFLQMSSLRSEDTALYYCSRQYGTVWFFNWGQGTLVTVSA
VL: not shown
notes: Full antibody with mouse IgG1 heavy chain constant region and mouse kappa light chain constant region; Expressed in HEK-293 cells
[3]
  binding result: binds

B3: humanized antibody PD1-H944 (antibody, human IgG4 S228P, kappa)
heavy: not shown
light: EIVLTQSPATLSLSPGERATLSCRASESVDSYGNSFMHWYQQKPGQPPRLLIYAASNQGSGVPARFSGSGSGTDFTLTISSLEPEDFAMYFCQQSKEVPWTFGQGTKVEIKRTVAAPSVFIFPPSDEQLKSGTASVVCLLNNFYPREAKVQWKVDNALQSGNSQESVTEQDSKDSTYSLSSTLTLSKADYEKHKVYACEVTHQGLSSPVTKSFNRGEC
[1]
  Kd: 0.108 nM
[4]
  binding result: no binding (tested: 13.30 nM)
[5]
  binding result: no binding (tested: 80 µg/mL)
[6]
  EC50: 0.0327 µg/mL
[7]
  binding relative to Nivolumab at 270 µg/mL: ~1.62 times

B4: M944 scFv antibody (scFv)
scFv: DIVLTQSPASLAVSLGQRATISCRASESVDSYGNSFMHWYQQKPGQPPKLLIYAASNQGSGVPARFSGSGSGTDFSLNIHPMEEDDTAMYFCQQSKEVPWTFGGGTKLEIKSSGGGGSGGGGGGSSRSSEVQLVESGGGLVKPGGSLKLSCAASGFTFSSYGMSWVRQTPEKRLEWVATISGGGRDTYYSDSVKGRFTVSRDNAKNNLFLQMSSLRSEDTALYYCSRQYGTVWFFNWGQGTLVTVSA
notes: Tested as a monoclonal phage clone (pComb3x phage display); Any phage fusion partner is not described; also called PD1-M944 scFv
[8]
  binding result: binds
